Data as given in patent US20200399385A1 (Bristol-Myers Squibb, published 2020).

What was measured:
[1] = target: T1, human OX40 on cells (human, UniProt P43489 29-277); assay: cell-based or functional assay
T1 sequence: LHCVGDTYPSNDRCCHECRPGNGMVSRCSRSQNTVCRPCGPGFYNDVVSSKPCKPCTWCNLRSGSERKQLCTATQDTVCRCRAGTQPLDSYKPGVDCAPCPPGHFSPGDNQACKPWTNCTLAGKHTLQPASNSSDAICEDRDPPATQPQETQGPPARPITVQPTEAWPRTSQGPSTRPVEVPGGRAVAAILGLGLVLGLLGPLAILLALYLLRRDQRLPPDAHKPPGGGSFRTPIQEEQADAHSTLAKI

[2] = target: T2, cynomolgus OX40 on cells (cynomolgus, UniProt P43489 29-277 (human entry)); assay: FACS, activated cyno CD4 T cells
T2 construct: also called cynoOX40-CHO
T2 chain: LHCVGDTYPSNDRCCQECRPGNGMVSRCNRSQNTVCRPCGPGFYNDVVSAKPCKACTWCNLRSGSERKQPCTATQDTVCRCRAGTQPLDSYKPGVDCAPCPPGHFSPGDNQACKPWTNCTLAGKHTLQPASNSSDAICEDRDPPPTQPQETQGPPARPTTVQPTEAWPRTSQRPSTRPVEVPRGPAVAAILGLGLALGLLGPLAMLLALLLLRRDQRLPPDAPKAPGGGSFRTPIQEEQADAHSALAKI
Description: (§1) Briefly, cells were activated for several days before the binding assay in order to induce OX40 expression. Total leukocytes were isolated from cynomolgus macaque peripheral blood by lysis of red blood cells using an ammonium chloride buffer. The leukocytes were then cultured for four to five days with in flasks pre-coated with anti-human CD3 plus anti-human CD28 antibodies that cross-react with cynomolgus macaque, in the presence of recombinant human IL-2, in order to expand and activate T cells. On the day of the assay, the cells were harvested and stained with a titration of each anti-OX40 antibody. Bound antibodies were detected with a fluorescently conjugated anti-human IgG polyclonal secondary antibody, and the cells were co-stained for CD4 and CD25 to detect activated CD4 T cells. The fluorescence intensity of the staining was measured using a FACSCanto II flow cytometer (Becton Dickinson). The geometric mean fluorescence intensity (GMFI) or median fluorescence intensity (MedFI) of anti-OX40 antibody staining was calculated for the CD4+CD25+ population (FACSDiva software). Dose-response curves were generated and EC50s for antibody binding were calculated using GraphPad Prism software.
The same experiment was performed with anti-OX40 antibodies with variable region substitutions.

[3] = target: T1, human OX40 on cells; assay: FACS, activated human T cells; mean ± SD, n=7
[4] = target: T1, human OX40 on cells; assay: cell-based or functional assay; remark: listed apart in the source
[5] = target: T2, cynomolgus OX40 on cells; assay: FACS, activated cyno T cells; mean ± SD, n=5
Description: as §1

[6] = target: T1, human OX40 on cells; assay: FACS competition on hOX40-293 cells against biotin-OX40.5 (spike biotOX.5 @ 1.0 ug/mL, streptavidin-APC); partial inhibition, FL4-MFI falls from about 29000 to about 17000; the table gives no unit, axis in nM
[7] = target: T2, cynomolgus OX40 on cells; assay: FACS, activated cyno T cells; n=1
Description: as §1

[8] = target: T3, his-tagged soluble human OX40 (huOX40-6xhis) (human, UniProt P43489 29-214); assay: SPR, mAb captured on anti-human CH1, OX40-6XHIS analyte, 1:1 fit
T3 construct: made in-house; also called Human-OX40-6XHIS; hOX40; not shown: hexahistidine tag
T3 sequence: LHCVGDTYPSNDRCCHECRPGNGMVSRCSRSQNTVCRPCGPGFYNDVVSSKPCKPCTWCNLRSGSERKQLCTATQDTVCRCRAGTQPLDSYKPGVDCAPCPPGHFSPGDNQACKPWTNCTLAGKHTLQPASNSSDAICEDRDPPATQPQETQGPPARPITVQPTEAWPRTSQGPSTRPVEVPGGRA
Description: The affinity of several OX40 antibodies for soluble human OX40 was tested by SPR analysis. […] Human-OX40-6XHIS antigen in either a single concentration of 400 nM or a 1:2 serial dilution from 400 nM was used. Experiments were carried out on BIACORE® T200 or BIACORE® 3000 SPR instruments. Data was fit to a 1:1 model.

[9] = target: T1, human OX40 on cells; assay: FACS competition on HT1080-hOX40 cells against APC-OX40.1 (FL2 MFI); the table gives no unit, axis 'Ab conc nM'
Description: This experiment was performed to test the cross-blocking properties of various anti-OX40 antibodies to assess binding specificities. […] Cells were washed and if necessary further incubated in the presence of streptavidin-APC conjugate under the same conditions. After the final wash, cells were analyzed on a FACSCanto flow cytometer (BD Bioscience, San Jose, Calif.). Mean fluorescence intensity (MFI) signal was proportional to bound conjugated antibody.

[10] = target: T1, human OX40 on cells; assay: FACS, activated human T cells; mean ± SD, n=2
Description: Cells were activated for several days before the binding assay in order to induce OX40 expression. Briefly, PBMCs were cultured for three or four days with magnetic beads coated with anti-human CD3 plus anti-human CD28, in the presence of recombinant human IL-2. On the day of the assay, the beads were removed and the cells stained with a titration of each anti-OX40 antibody. Bound antibodies were detected with a fluorescently conjugated anti-human IgG polyclonal secondary antibody, and the cells were co-stained for CD4 and CD25 to detect activated CD4 T cells. The fluorescence intensity of the staining was measured using a FACSCanto II flow cytometer (Becton Dickinson). The geometric mean fluorescence intensity (GMFI) or median fluorescence intensity (MedFI) of anti-OX40 antibody staining was calculated for the CD4+CD25+ population (FACSDiva software). EC₅₀s for antibody binding were calculated using GraphPad Prism software.

[11] = target: T1, human OX40 on cells; assay: FACS, blocking of OX40L-His (0.2 µg/mL) binding to hOX40-293 cells
Description: Briefly, 293 cells stably transfected with human OX40 were first pre-incubated with varying concentrations of anti-OX40 antibodies. […] The fluorescence intensity of the staining was measured using a FACSCanto II flow cytometer (Becton Dickinson).

B1: OX40.6 (antibody, human IgG1, kappa, V domains shown)
VH: EVQLVQSGGGLVQPGGSLRLSCAGSGFTFSNYAMYWVRQAPGKGLEWVSAIGIGGDTFYTDSVKGRFTISRDNAKNSLSLQMNSLRAEDTAVYYCARMGTGYFFDYWGQGTLVTVSS
VL: EIVLTQSPATLSLSPGERATLSCRASQSVSSYLAWYQQKPGQAPRLLIYDASNRATGIPARFSGSGSGTDFTLTISSLEPEDFAVYYCQQRSNWPLTFGPGTKVDIKR
IFNγ EC50, CD4 T cells + CHO-CD3-CD32A [1]: 0.033 nM | Proliferation EC50, CD4 T cells + CHO-CD3-CD32A [1]: 0.032 nM | EC50 [2]: ≤ 0.12 nM | EC50 [3]: 0.13 nM | IL-2 EC50, SEB PBMC, donor BMS-001 [4]: 0.49 nM | IL-2 EC50, SEB PBMC, donor BMS-004 [4]: 0.48 nM | IL-2 EC50, SEB PBMC, donor BMS-009 [4]: 0.45 nM | IL-2 EC50, SEB PBMC, donor BMS-012 [4]: 0.66 nM | IL-2 EC50, SEB PBMC, donor BMS-015 [4]: ~0.46 nM | IL-2 EC50, SEB PBMC, donor BMS-016 [4]: 0.29 nM | IL-2 EC50, SEB PBMC, donor WB10024 [4]: ~0.42 nM | IL-2 EC50, SEB PBMC, donor WB10025 [4]: ~0.85 nM | IL-2 EC50, SEB PBMC, donor WB10026 [4]: 0.28 nM | IL-2 EC50, SEB PBMC, donor WB10027 [4]: 0.45 nM | IL-2 EC50, SEB PBMC, donor WB10137 [4]: 0.56 nM | IL-2 Mean EC50, SEB PBMC, all donors [4]: 0.46 nM | EC50 [5]: 0.11 nM | EC50 [6]: 0.857 nM

B2: 14B6 (antibody, V domains shown)
VH: EVQLEQSGAEVKKPGESLKISCKGSGYSFTSNWIGWVRQMPGKGLEWMGFIYPGDSDTRYSPSFQGQVTISADKSISTAYLQWSSLKASDIAMYYCARYGDDWYFDLWGRGTLVTVSS
VL: EIVLTQSPATLSLSPGERATLSCRASQSVSSYLAWFQQRPGQAPRLLIYDASNRATGIPARFSGSGSGTDFSLTISSLEPEDFAVYYCQQRGDWPITFGQGTRLEIK
notes: also called 14B6.C5.C8; 14B6.C5
Proliferation EC50, CD4 T cells + CHO-CD3-CD32A [1]: 0.012 nM | EC50 [7]: 0.31 nM | Kd [8]: 8.84 nM | koff [8]: 0.000654 s⁻¹ | kon [8]: 74000 M⁻¹ s⁻¹ | IC50 [9]: 0.7 nM | EC50 [10]: 0.18 nM | EC50 [11]: 1 nM
